Key:
[1] = target: T1, anthrax lethal factor (LF) (Bacillus anthracis, UniProt P15917 34-809); assay: ELISA, LF coated at 5 ug/ml
T1 sequence: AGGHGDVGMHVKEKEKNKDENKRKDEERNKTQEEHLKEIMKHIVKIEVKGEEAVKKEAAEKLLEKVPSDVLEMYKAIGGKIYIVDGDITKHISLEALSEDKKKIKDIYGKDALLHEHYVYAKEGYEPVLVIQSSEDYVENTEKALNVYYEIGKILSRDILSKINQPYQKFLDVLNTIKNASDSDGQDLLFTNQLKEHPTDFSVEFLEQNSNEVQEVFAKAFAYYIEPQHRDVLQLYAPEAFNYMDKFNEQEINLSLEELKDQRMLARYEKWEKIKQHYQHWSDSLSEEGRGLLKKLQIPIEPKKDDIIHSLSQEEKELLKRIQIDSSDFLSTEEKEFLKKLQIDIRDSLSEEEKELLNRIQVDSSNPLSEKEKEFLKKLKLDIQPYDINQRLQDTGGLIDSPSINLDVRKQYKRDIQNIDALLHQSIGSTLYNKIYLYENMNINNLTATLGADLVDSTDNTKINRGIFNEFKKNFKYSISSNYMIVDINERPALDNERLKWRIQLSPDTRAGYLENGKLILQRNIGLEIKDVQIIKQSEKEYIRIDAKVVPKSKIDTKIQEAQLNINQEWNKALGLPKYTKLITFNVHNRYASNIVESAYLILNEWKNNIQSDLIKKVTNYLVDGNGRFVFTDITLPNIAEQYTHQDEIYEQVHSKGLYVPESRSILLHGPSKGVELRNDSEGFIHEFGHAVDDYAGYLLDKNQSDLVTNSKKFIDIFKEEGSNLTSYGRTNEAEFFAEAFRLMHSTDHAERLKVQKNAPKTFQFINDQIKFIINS

[2] = target: T2, bovine serum albumin (bovine, UniProt P02769 25-607); assay: ELISA, protein coated at 10 ug/ml
T2 construct: also called BSA
T2 sequence (P02769 25-607 limits assumed): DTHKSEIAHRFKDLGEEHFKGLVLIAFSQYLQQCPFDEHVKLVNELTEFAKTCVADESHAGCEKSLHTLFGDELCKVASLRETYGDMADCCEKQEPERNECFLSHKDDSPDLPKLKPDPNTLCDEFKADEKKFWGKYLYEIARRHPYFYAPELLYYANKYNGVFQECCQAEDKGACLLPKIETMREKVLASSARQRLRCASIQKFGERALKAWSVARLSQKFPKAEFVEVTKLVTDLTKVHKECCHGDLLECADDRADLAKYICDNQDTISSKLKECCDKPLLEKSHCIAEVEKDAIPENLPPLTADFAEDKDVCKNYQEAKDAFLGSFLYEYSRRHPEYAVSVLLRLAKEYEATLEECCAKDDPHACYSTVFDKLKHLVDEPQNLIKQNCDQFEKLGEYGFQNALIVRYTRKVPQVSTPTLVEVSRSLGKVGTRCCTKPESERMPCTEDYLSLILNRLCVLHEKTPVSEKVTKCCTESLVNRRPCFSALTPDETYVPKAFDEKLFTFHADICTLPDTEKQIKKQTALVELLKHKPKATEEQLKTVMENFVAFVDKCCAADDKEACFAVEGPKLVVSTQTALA

[3] = target: lysozyme (Gallus gallus (Chicken), UniProt P00698 19-147); assay: ELISA, protein coated at 10 ug/ml
Chain of lysozyme (P00698 19-147 limits assumed): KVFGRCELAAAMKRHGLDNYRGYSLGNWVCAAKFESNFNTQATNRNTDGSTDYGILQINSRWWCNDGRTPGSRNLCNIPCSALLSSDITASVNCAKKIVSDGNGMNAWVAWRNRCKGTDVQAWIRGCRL

[4] = target: T3, anthrax edema factor (EF) (Bacillus anthracis, UniProt P40136 34-800)
T3 sequence: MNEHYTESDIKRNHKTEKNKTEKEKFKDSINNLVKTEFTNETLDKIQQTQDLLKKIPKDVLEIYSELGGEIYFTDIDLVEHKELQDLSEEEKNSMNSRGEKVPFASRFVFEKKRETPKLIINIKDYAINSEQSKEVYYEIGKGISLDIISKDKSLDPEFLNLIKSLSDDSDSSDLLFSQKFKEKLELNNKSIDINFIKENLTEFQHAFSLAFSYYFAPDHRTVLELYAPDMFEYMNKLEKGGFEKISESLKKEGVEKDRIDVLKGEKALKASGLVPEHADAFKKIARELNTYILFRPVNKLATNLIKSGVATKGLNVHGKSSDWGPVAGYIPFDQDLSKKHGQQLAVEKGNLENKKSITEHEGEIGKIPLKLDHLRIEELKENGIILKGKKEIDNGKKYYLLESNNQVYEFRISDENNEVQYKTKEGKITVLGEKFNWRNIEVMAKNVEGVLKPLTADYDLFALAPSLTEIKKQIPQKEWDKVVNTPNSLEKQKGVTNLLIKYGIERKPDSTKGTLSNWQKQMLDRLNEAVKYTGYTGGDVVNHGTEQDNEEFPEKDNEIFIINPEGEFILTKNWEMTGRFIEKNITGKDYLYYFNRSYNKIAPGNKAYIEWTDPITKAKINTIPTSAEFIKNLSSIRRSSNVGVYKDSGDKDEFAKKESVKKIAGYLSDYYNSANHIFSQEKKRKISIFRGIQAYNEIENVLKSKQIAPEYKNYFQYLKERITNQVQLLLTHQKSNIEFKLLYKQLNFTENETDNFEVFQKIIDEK

[5] = target: T3, anthrax edema factor (EF); assay: ELISA, EF coated at 5 ug/ml
[6] = target: T3, anthrax edema factor (EF); assay: cell-based or functional assay
[7] = target: T3, anthrax edema factor (EF); assay: SPR (BIAcore), IgG immobilized on CM5 chip, recombinant EF injected, 1:1 model
[8] = target: T1, anthrax lethal factor (LF); assay: cell-based or functional assay
[9] = target: anthrax protective antigen (PA), purified (Bacillus anthracis, UniProt P13423 30-764); assay: Western blot of purified toxin proteins; PA as negative control
Chain of anthrax protective antigen (PA), purified (P13423 30-764 limits assumed): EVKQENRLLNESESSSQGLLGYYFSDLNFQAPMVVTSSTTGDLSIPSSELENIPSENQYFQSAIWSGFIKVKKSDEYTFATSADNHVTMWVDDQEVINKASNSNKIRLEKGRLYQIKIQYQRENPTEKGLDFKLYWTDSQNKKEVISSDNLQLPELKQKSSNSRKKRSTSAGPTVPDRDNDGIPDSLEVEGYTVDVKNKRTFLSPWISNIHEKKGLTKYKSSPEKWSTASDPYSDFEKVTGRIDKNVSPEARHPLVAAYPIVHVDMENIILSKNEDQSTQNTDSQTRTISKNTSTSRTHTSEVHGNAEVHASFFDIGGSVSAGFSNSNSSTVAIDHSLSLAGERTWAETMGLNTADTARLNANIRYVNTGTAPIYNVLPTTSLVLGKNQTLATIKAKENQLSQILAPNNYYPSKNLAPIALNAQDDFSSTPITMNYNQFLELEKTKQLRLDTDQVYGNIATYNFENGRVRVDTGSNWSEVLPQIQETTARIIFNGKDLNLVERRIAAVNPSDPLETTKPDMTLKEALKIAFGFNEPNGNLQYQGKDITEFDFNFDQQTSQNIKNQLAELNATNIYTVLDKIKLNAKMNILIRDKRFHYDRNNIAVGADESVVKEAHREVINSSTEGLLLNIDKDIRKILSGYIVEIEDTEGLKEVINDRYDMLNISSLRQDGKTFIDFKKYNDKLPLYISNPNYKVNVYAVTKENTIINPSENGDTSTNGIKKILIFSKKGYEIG

[10] = target: T3, anthrax edema factor (EF); assay: Western blot of purified toxin proteins (SDS-PAGE) probed with the mAb
[11] = target: T1, anthrax lethal factor (LF); assay: SPR (BIAcore 3000), LF immobilized on CM3 chip, Fab injected
[12] = target: T3, anthrax edema factor (EF); assay: Western blot of purified toxin proteins (SDS-PAGE) probed with the mAb; remark: listed apart in the source

B1: anti-LF clone LF9D (antibody, V domains shown)
VH: EVQLLESGGGLVKPGGSLRLSCAASGFTFSSYAMHWVRQTPEKGLEWVSTISSIGGSTWYSDSVKGRFTISRDNSKNTLFLHMKSLRAEDTAVYYCARDFFSQVGWSTPNNWFDPWGQGTLVTVS
VL: AAELTQSPSTLSASVGDRVTITCRASQGIATYLNWYQQIPGKAPKLLIYAASTLESGVPSRFSGSGSGAEFTLTISSLQPGDFATYYCQQFYSMPLTFGGGTKVEIKR
binding result [1]: binds
binding result [2]: no binding
binding result [3]: no binding

B2: anti-EF clone EF14H (antibody, V domains shown)
VH: VQLLEESGGGLVKPGGSLRLSCAASGFTFSNYSMNWVRQAPGKGLEWVGFIRTKAKGGTTEYAASVKGRFTISRDDSKSIAYLQMNSLKTEDTAVYYCTPAGIIIRLVTPIYYYYMDVWGKGTTVTVS
VL: AAELTQSPSSLSASVGDRVTITCRASQGIRNYLAWYQQKPGKVPKLLIYAASTLQSGVPSRFSGSGSGTDFTLTISSLQPEDVATYYCQKYSSAPFTFGPGTKVGIKR
EC50 (read off the curve) [4]: ~0.05 µg/mL
binding result [2]: no binding
binding result [3]: no binding

B3: anti-EF clone EF15A (antibody, V domains shown)
VH: VQLLEESGGGVVQPGRSLRLSCTASGFTFSNYGMQWVRQAPGKRLEWVAFISYSGSNKQYADSVRGRFTISRDNSKNILYLQMNSLRSEDTAVYYCARDSHYLDYLPDAFDYWGQGTVVTVS
VL: ELVMTQSPSLLSASVGDRVTITCRASQGISNYLAWFQQKPGKAPKRLIFTAYRLESGVPSRFSGSMSGTEFTLTISSLEPEDFATYYCLQHSAYPPTFGQGTKLEIKR
binding result [5]: binds
binding result [2]: no binding
binding result [3]: no binding

B4: anti-anthrax EF13D monoclonal antibody (IgG) (antibody, V domains shown)
VH: EVQLLESGAEVKKPGSSVKVSCKVSGGTFSSFGISWVRQAPGQGLEWMGLIIPILGTANYAQKFQGRLTITADESTSTVYMELSSLRSEDTAVYYCATDPYHNWGEWDLDYWGQGTLVTVS
VL: AAELTQSPSSLSASVGDRVSITCRASQSISNYLSWYQQKPGKAPQLLIYDASTLQSGVPSRFSGSGSGTDFTLTISSLQPEDFATYYCQCGYGTYPTFGGGTQVEIKR
EC50 of inhibition of ET-mediated cAMP production in RAW264.7 cells [6]: 0.028 µg/mL
binding result [2]: no binding
binding result [3]: no binding
Kd [7]: 9.7 nM
koff [7]: 0.0004 s⁻¹
kon [7]: 41200 M⁻¹ s⁻¹

B5: anti-anthrax LF11H monoclonal antibody (IgG) (antibody, V domains shown)
VH: VQLLEQSGAEVKKPGESLKISCKGSGYSFTNYWIGWVRQMPGKGLEWMGIIYPDDSDTRYSPSFQGQVTISFDKSINTAYLQWSSLKASDTAIYYCARALWFRDWGKMDVWGKGTTVTVS
VL: ELQMTQSPSSLSASVGDRVTITCRASQGIRNDLGWYQQKPGKAPKLLIYAASSLQSGVPSRFSGSGSGTDFTLTISSLQPEDFATYYCLQDYTYPWTFGQGTKLEIKR
EC50 of neutralization of LT toxicity, RAW264.7 macrophage viability (MTT) [8]: 62.6 µg/mL
binding result [2]: no binding
binding result [3]: no binding
binding result [9]: no binding
binding result [10]: no binding

B6: anti-anthrax LF11H Fab (Fab, V domains shown)
VH: B5 VH
VL: B5 VL
Kd [11]: 7.4 nM
koff [11]: 0.001 s⁻¹
kon [11]: 130000 M⁻¹ s⁻¹

B7: anti-anthrax LF10E monoclonal antibody (IgG) (antibody, V domains shown)
VH: EVQLLESGGGLVKPGGSLRLTCAASGFTFSSYAMHWVRQAPEKGLEWVSSISGSGGGTWYADSVKGRFTISRDNSRNTLYLQLNSLRAEDTAVYYCARPKYTGYENPFDYWGQGTLVTVS
VL: ELQMTQSPSSLSASVGDRVTITCRASQDIRNYLAWYQQEPGKAPRLLIYYASKLQSGVPSRFSGRGSGTDYSLTISSLQPEDFATYYCQQYDSVPLTFGGGTKMEIKR
EC50 of neutralization of LT toxicity, RAW264.7 macrophage viability (MTT) [8]: 0.0156 µg/mL
binding result [2]: no binding
binding result [3]: no binding
binding result [9]: no binding
binding result [12]: no binding

B8: anti-anthrax LF10E Fab (Fab, V domains shown)
VH: B7 VH
VL: B7 VL
Kd [11]: 0.69 nM
koff [11]: 0.00019 s⁻¹
kon [11]: 270000 M⁻¹ s⁻¹

Source: patent US20100119520A1 (US Dept. of Health and Human Services, published 2010)
